# According to the supplement of paper PMC9170038:
# Test system: MS2 coat protein
# Assay: apparent KD of MS2 coat protein; designed switch direction (-1 OFF switch, 1 ON switch): -1; higher = weaker reporter binding
# Outline: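 Each step of the titration lasted 0.8–1.5 h at the lowest concentration and 10–20 min at the highest. The protein, SNAP-549-labelled MS2 coat protein, went from 0.7 or 1.5 nM doubling to 3 µM over RNA switches transcribed on Illumina chips by stalled E. coli RNA polymerase. Normalised cluster fluorescence was curve-fitted, and the per-design median over clusters is given as apparent KD.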
# [1] = Eterna round: R95, input ligand: FMN 200 uM
# [2] = Eterna round: R95, input ligand: microRNA oligo, concentration not stated
# [3] = Eterna round: R95, input ligand: none
# [4] = input ligand: microRNA oligo, concentration not stated
Sequence,apparent KD of MS2 coat protein [1] [nM],apparent KD of MS2 coat protein [2] [nM],apparent KD of MS2 coat protein [3] [nM],apparent KD of MS2 coat protein (input ligand: FMN 200 uM) [nM],apparent KD of MS2 coat protein (input ligand: none) [nM],apparent KD of MS2 coat protein [4] [nM]
AAAAAACAAGGAUAUACAAAAAAAAAAAGUGAAAAAAAACCACAUGAGGAUCACCCAUGUAGAAGGUGUAAAAA [JR_Exclusion2_Sub002] (puzzle: Exclusion 2),21.9,37.1,51.1,,,
AAAACACAUGAGGAUCACCCAUGUGAGGAUAUGUUCAUGUUCAGCAAACUGAACAUGAACAGAAGGCACAUAAA [JR_Exclusion1_Sub016] (puzzle: Exclusion 1),44.7,36.5,40.4,,,
AAAACACAUGAGGAUCACCCAUGUGAGGAUAUGUUGAUUUUGAUCAAAGUUAAGAUUAACAGAAGGCACAUAAA [JR_Exclusion1_Sub018] (puzzle: Exclusion 1),34.5,36.1,35.2,,,
AAAACGGCAGGAUAUCGGAACAAUGACAUGAGGAUCACCCAUGUGAUCGUUUCACUUGGCCGAGAAGGGCCAAAAU [Xeinbelele] (puzzle: Exclusion 5),54.6,18.6,17.4,,,
"AAAACGUGAGGAUAUCCAAUAUAUGACAUGAGGAUCACCCAUGUUUCCACUCGUACCUCCGGAGAAGGCACAAUUA [Ex5 #77] (Eterna round: R97, puzzle: Exclusion 5)",,,,46.4,43,
"AAAAGAACGGCAGGAUAUGCAAGCACUGACCUCCCAAAAUAAAGAAACAUGAGGAUCACCCAUGUGCAGAAGGGCCAAAAGUGC [Vediusin] (Eterna round: R96, puzzle: Exclusion NG 2)",,,,,,10.4
"AAAAGCAAGCAAAGAUUCUACAUGAGGAUCACCCAUGUGCUCGUCUUAUAAAGUACUAUCACGAAAGUGAUAGUACA [Sensor 3, v1 - 42] (puzzle: Sensor v3, turn-off variant 1)",26,142,19.7,,,
"AAAAUAAACCUCAUUUAAAACAUGAGGAUCACCCAUGUAAAAUGCUCGUCUUAUUAAAUGUACUCCUAGUUCGUACA [My solution] (Eterna round: R97, puzzle: Sensor, turn-off variant 1)",,,,178,251,
AAAAUGCAAGGAUAUACAUAGAUCCGACCUACUUAAAACAAACAUGAGGAUCACCCAUGUAGAAGGUGCCAAAA [Raxerebiti] (puzzle: Exclusion 2),44.9,23.7,25.5,,,
AAACAACAUGAGGAUCACCCAUGUAAGGAUAUGCGAGUUGGGUCAACGAAGGUUGAAGGCAGAAGGUAUAGGGU [Erxevees] (puzzle: Exclusion 1),,49.3,,,,
AAACAAGAAGGAUAUACAUUAUCGGAUCUUCCGGCAAUGCCACAUGAGGAUCACCCAUGUAGAAGGUCUAAAUU [Ralabi] (puzzle: Exclusion 2),,12.3,,,,
"AAACACACAGGAUAUGAGAGGCGGUACAUGAGGAUCACCCAUGUCCUCGGAAAUCAGCGUUCAGAAGGGUGCGGUG [Eternabot (Original) Solution 36] (Eterna round: R97, puzzle: Exclusion 5)",,,,457,171,
"AAACACUGAGGAUAUGCGUAACAACAAAGCCUCACGUGCCAACAUGAGGAUCACCCAUGUAGAAGGCAGUCCAA [Mod R3 Insanara 17 - Jieux - Exclusion 2] (Eterna round: R97, puzzle: Exclusion 2)",,,,25.2,25.1,
AAACCACAUGAGGAUCACCCAUGUGAGGAUAUGAUACUAUGUACUUCGGUACAUAGUAUCAGAAGGCAUGUGGA [Ex1-3: 88] (puzzle: Exclusion 1),,168,,,,
AAACCCUGAGGAUAUACAUAACAACAAAGCCUCACGUGCCAACAUGAGGAUCACCCAUGUAGAAGGCAGGCCAA [Isananra] (puzzle: Exclusion 2),,12.6,,,,
"AAACGGCGGACCGUGGCUUUUUGCUCGUCUUGUGCUUCGACAUGAGGAUCACCCAUGUGGUGGUGGUCCGUUGUAAA [Grok-var2-15 mod JAL] (puzzle: Sensor v3, turn-off variant 2)",48.3,40.3,80.3,,,
"AAACGGCGGAUCGUGGCUUUUUGCUCGUCUUGUGCUUCGACAUGAGGAUCACCCAUGUGGUGGUGAUCCGUUGUAAA [Grok-var2-16 mod JAL] (Eterna round: R96, puzzle: Sensor v3, turn-off variant 2)",,,,537,84,12.4
"AAACGGCGGAUCGUGGCUUUUUGCUCGUCUUGUGCUUCGACAUGAGGAUCACCCAUGUGGUGGUGAUCCGUUGUAAA [Grok-var2-16 mod JAL] (puzzle: Sensor v3, turn-off variant 2)",58.6,15.8,83.5,,,
"AAACUGAGGCAAAGCUUUAGUCGUACAUGAGGAUCACCCAUGUAGGAUAUGGUAGGCUUUGCUUACCAGAAGGACAGAGUGAUC [Mat - Exclusion NG 3 - Mod of JL - D56] (Eterna round: R96, puzzle: Exclusion NG 3)",,,,235,110,103
AAACUGCAUGUGAGGAUAUGCACCGGCUAAACCGGGCAGAAGGCACAUGAGGAUCACCCAUGUCAUCCUAUUGC [Esleisus] (puzzle: Brourd's mod of Exclusion 4),,9.01,,,,
"AAAGAAGAGAGAAAACAACACAUGAGGAUCACCCAUGUGAGAAGAUGAGGGUGAUACAGGCUAUAUGCUCGUCUUAU (puzzle: Sensor v3, turn-off variant 1)",55,281,52.4,,,
"AAAGCUGCAGGAUAUGCAUGUGUGGACAUGAGGAUCACCCAUGUGAGCGUAUCAUGUCGAGCAGAAGGGCAGUAAA [Atquer] (Eterna round: R97, puzzle: Exclusion 5)",,,,172,630,
"AAAGUAGACCUUGAAGCAUCGUAAACAUGAGGAUCACCCAUGUAGGAUAUGGGUAGCUAUGCUAGCCAGAAGGAUGUGUGGUGA [Eternabot solution 16] (Eterna round: R96, puzzle: Exclusion NG 3)",,,,335,54.4,39
"AAAUAACAAGCAAUAAACCACAUGAGGAUCACCCAUGUAAAGGGUGAAUCGUCCACCCAAAAAAAAAAAAAAAAAUA [Mat - Sensor v2 - Eli mod - 147] (Eterna round: R96, puzzle: Sensor v2, turn-off variant)",,,,43.3,52.3,178
"AAAUAAUAGAUAAAAUAAAACAUGAGGAUCACCCAUGUGGGAAGAUGAGGGUGAAACAAGCUUUUUGCUCGUCUUAU (puzzle: Sensor v3, turn-off variant 1)",37.8,754,46.7,,,
"AAAUAAUAGAUAAAAUAAAACAUGAGGAUCACCCAUGUGGGAUGUUGAGGGUGAAACAAGCUUUUUGCUCGUCUUAU (puzzle: Sensor v3, turn-off variant 1)",105,502,139,,,
